{
  "source": "the NTF2 design screens of Basanta et al. (2020)",
  "data": [
    {"experiment": "protease stability score; higher = more stable; yeast display proteolysis, trypsin and chymotrypsin;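 also: relative to predicted unfolded state with 0 unfolded-like and 1 meaning tenfold more protease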", "values": [
      {"sequence": "DDTLRDLFHLIELFHKALKTGDEQKMRENLDPHAKFDWDGRDYVGMEEVVKYVVEARIESTFHIHSVRKIGNKLDVDGTFSLEVDYNGKKEDIHSRQHHFIYKVDGQWIIKRIIIK", "protease stability score": 0.537},
      {"sequence": "SEEEDISRNLLEIFLRVLLTGDEHAISRLLDPRVLVIFHFENRDIILHGRSNVLKWLHDRLREIRINDWSVKSVEVQGNKAHQDTRIDIIIGDKKIDKEVEVNITVVDGKVKHLEIRVH", "protease stability score": 2.21},
      {"sequence": "DEDEERNEHFLRLYEKITTTGDEDIAKELIDPNARLHVNGKDIHGRESVVKWLKELRIHHLKLRHFRIVGEKAENDISYDVEVDGRTNRRDVHIYLLKIDGRWVIHSIEVR", "protease stability score": 1.84},
      {"sequence": "DDRKKEAQRILELFLKIWETGDEEELLKLLDPNVKLHIGDKNIHGMEEATRILTENVREIRTHIVHKRVHIQGDKVELEGELRIHVNGREESNRVHYELIVVNGKVKAIHVHLE", "protease stability score": 1.16},
      {"sequence": "SEIEEDSRKASRDLMNSIRTGNEEVLKEMADPHVRTDINGREIHGMEKWLNELSEFLEKFKGAKIDLSLKDIRIQGEYIHIHMHVHLRFNGKSDNKDIEIIALKVDGRWLIQEWRIR", "protease stability score": 0.834},
      {"sequence": "SEEHHDAERAMEEFLKVMNTGNEKLLRDLIDPNVRTEINGQEIIGWKSMHRIMREWGVDNIRVHLRRLEVQGEKLHLEEELNVNGRTSKMEIVALKINGRWVVSEIRFH", "protease stability score": 2.03},
      {"sequence": "DHHEKHLKHIFHLYIRAWITGNEKEMQDLADPNVRMHVGDKHVHGREEVRRLHHHLLTHIRLDHFHIDDHRVYDGVVEVKGIEDHNVNGQRHRFESTWIIVIVNGRIEEIEIRVH", "protease stability score": 1.16},
      {"sequence": "TEEEEKSEHLIRLLLHILTTGDEDTYSWLLDPNAKLTFNGVEFHGREDLRRFWEEHLHRLGVDHRDIKDLKRQGDKVIIHNKIHVNGRTIHQEVEIEVINGKAKFNTVILE", "protease stability score": 0.412},
      {"sequence": "SEEEERLRENLERWHRALYTGDEEHLFNLADPHARFEIIVDGRDVRIHGRENYLRWVEEFRKELGISRVHTELKSEHVINGRNDEDGLVHINGRSLRVHFHLDVVDGRTKKIHIYVR", "protease stability score": 0.779},
      {"sequence": "DETEEEARHVFELIIEYHLTGDWDKWLRMFDPHVKLVVNGRDNHGREHAVHRLKEFLRQWRIHDVEVKSVDLQGDKVRVDGRLDGIVNGVREKTEVTLSLIVVDGKIKSHEVRIH", "protease stability score": 1.51},
      {"sequence": "SHEEEMHLHVAELMLKLLLTGNEEELAKLMDPNVQTEIDGRSYHGRELIIDLIRHSREKLGVNHSELKRSHVRLVDGRLHVHLDSRFLVNGVWLDVEIEMFVLKINGKWVIESVHVRVR", "protease stability score": 0.718},
      {"sequence": "DEERKLATELFKWLIDLYLTGDEETFEKLADPHYLSDVNGRNIHGMELISHIWREEIEKYGWEIHIKIRHIELQGDKSKSETEIHNNYDGRRIVFETRIIVRIVNGRIKSIEVRFR", "protease stability score": 1.28},
      {"sequence": "DEEDEERTWAWEIFVKIIRTGDEQKLHEMADPHVRLHVGDKHEHGREELVKFFIDYILSLGVDHIEVHLKREDRINGRIHIDSKLRIEVGDKEITNNTHVLFLKVDGKWILKQVEIK", "protease stability score": -0.11},
      {"sequence": "SESERYIHEAERHLIEKLRTGDWDDMSRLLDPHVRLDVNGQEFHGWHRVSDTMRRFGFKHVDVEDTHINEDELRSHLRSRVDGVHFELHIQMRKVNGRWFFKNLEFK", "protease stability score": 1.15},
      {"sequence": "DEEEHEAKRADEVYQHVMETGDERLLNEYFDPHYRLEQGDYELVGREEASRFLIEWMKHWRTEYRLDNYHVIGNKIRLEGELHIRYGNFTRSHRIVTYVLKVDGQWRIKKTEIR", "protease stability score": 1.64},
      {"sequence": "DEEEEELRRLLEEIFRNRVTGDEERWLELADPDVRLEEHINGQEIHLHGREDVAEHIREARIHSTEVKDVKVINGVIHLDEKIDGIINGVRRDTRVIVHIVVINGRIKSIRVIVN", "protease stability score": 1.65},
      {"sequence": "DDEEEVAERAARIVHHLYLTGNPEELLKYFDPDVRWIFNGKTSIGRENVVEMFDDVHRMFGIDVRTSDINSYDIVDGRIEVDSRLHLHINGRKINHHFRIESIKINGRWWLKRIDID", "protease stability score": 0.933},
      {"sequence": "DEWEESHKLVSKMIADTDETGDERIKRRLLDPHARLIVDGREYHGREHMDKIWKYFGLDRIHVEVRRMHVYGDKVSLHVHSIYNGREVEVHIIIHKVDGRWHLHSVDIQ", "protease stability score": 0.596},
      {"sequence": "DEIEEEVRKFAEIHSRDLMTGNFESFREQADPHVRVIINGREFHGWHFLFHWLQEMRIHRVRIEDVRVYGDKAILDTRVESHVDGRTFDLEFKLVLSKVDGRWRVHQIILR", "protease stability score": 1.11},
      {"sequence": "SEHEEESHIAFEIYQKWVQTGDWEQLDHNFDPDTRVEINGVEHVGMEHFHELEKRLHEHLGISKINSHVKHFEIFDGRLELFTIMEFNGRRIRTHHIAHKVNGRWRIKSIRFE", "protease stability score": 1.43},
      {"sequence": "SHEDKLNEEVARLIIHAWKTGNERLMLKLLDPHTRFEQGDKEMVGREHLLEMLRHRLEELGVDHIDFKDYKIDVVDGVLNIYLRIEIEVGDKHIDMIIKVIVLKFDGRWHVHEVRVEER", "protease stability score": 1.5},
      {"sequence": "DEDERELQELREHFIRKFLTGDWEAIANLFDPNTRMNFNGREVHGMEEVMRVFWEIMEKLGVDHQTIHDVKWQGDKLEVHSYLDINGRRHKLRIELQVIDGVIRSVHFEIE", "protease stability score": 1.21},
      {"sequence": "DESKESARSFEDLLQEVRRTGDERKLVNLIDPHVKININGKIFHGWEDLEREFHRIKNIRFHVERMRVVGDKIDVRGTLHVDGQTVDTEIDVYKIDGRWAIESLRIG", "protease stability score": 1.43},
      {"sequence": "DKREEIAREIWKMFDDAVFTGNEETLERMADPNVRFIIGDKHLIGMRDEIHWLREIRVHIELSRIHDIHLQGDKIHIDSHNDIEIIINGQERRHETKYMIDIRKVNGRWIIERVEIR", "protease stability score": 0.818},
      {"sequence": "SEHEEDARRIFERWINSVNTGDERLIYEMHDPHVRVEINGREFHGREEIHKLAHRIDHFKIHRIIERDVRLVNGRVELHGEIDYRFFFDGKELSSIHSLHMTLTKVNGRWSIEEERVK", "protease stability score": 0.39},
      {"sequence": "DELDKLAHIMMEEILRNWVTGDEDRHNELADPTVRMHSIVGDKHLEIHGREIFTEFLKRIKNVTFEIRLTDLKIQGEKAHSHTRLILRFDGQQVERDTEVTIIVINGRVKDVSIIIR", "protease stability score": 1.06},
      {"sequence": "SHWEEDARRFNEIFITHFMTGDWHHLERMLDPHTRAHINGVNTVGREEVSRLVTELFEELGAKHHRIHDFRIQGDKVDTHHHLDVNGRNNHFIIHVKKINGKWRVESIEMTVI", "protease stability score": 1.22},
      {"sequence": "DEEEEILRRFIEEWLYAELTGDFHVLHELFDPNVRIEINGVDKHGMHIVIKELLEFYRRVKNLRVEFELRDEKRFDGVVIIIGVRRISINGQTHEEETILVIVKVNGRWVMKEIWFN", "protease stability score": 1.64},
      {"sequence": "SELHEKLKRDMDILEELLLTGDWEKLLKYIDPHARLEIGDKEVHGREILSEVFRDVFERIKNARIHIEHSEAINGRFDIHSEWIVNGKNRRVHIETVVINGRVDKLYFEIRHR", "protease stability score": 1.05},
      {"sequence": "SELERQIERANRELVDIIYTGDEHLVDRMLDPRTLLTVGDKHTIGREEMIEWFKHHIREMRIRHSDTKDPHFINGVIDSHLYLDMEFDGRRFISRTRLIVLKIDGRWHIERITII", "protease stability score": 0.687},
      {"sequence": "SEEERYHDKALKILKESVDTGDPHLLSRYMDPNDRLDINGREIHGMEILLKELLHIMERADHIRIELNDIKMQGDFLELDGILIIHQGEYTLQLRVKLVSLKVDGRWLHHSIEVK", "protease stability score": 0.171},
      {"sequence": "DEDERLFEEATRLWSKLVLTGDEKRLEELMDPNVRVVIGDKVFHGREIAVKVVKELRVEHIIIRRWEIIGDKAHIRGESRGIVNGVERVSTLDLTLLKIDGRWIIESIRLE", "protease stability score": 1.09},
      {"sequence": "DDEEKMFVHLAKLFTDIMTTGDEKFLDELVDPNVRFDVNGRLRVGREELKKAIQDWWREIRVDEILIHEIDVIDGRLRMDGRMRGDIDGQETYLELHIILHVIDGRMTHVEIRHQ", "protease stability score": 2.38},
      {"sequence": "EEHYEDMHHAMELFIHAVRTGDEHTLSRMLDPNTRIRIDGVHLIGREQAVKWWLELYKKFPNMRLNLKRIDIFDGKLHVDLETNINGVRLDSHLLISKVDGQWRVDSIQHE", "protease stability score": 1.5},
      {"sequence": "DEREKRWRKLHQDILEAIWTGDEETFLRLADPDMRFYLIVNGRTVDLHGMELASVVLHERRKRFKNATWHLKSERVQGNYSELNEELIVGDKTYDIRINLVHIDGKLHSVVIEDI", "protease stability score": 1.01},
      {"sequence": "SEHQEVFEEFVRRWIEDMETGNEEQLRHLADPDARIVINGREHHGREWVSTFLMKRIRHLGVKHVEIDDKKQIGEKIHVRVTIHFDGVTVDTELIALKINGRWFMHEVIFR", "protease stability score": 1.5},
      {"sequence": "SEENELAERFFKELRDHFETGDEDVLDEMADPNMKLHINGRNFHGMHVYSKLARWLVDHWRSEFKVRRIEVQGNKIIIDSQLTLHIDGQRIIHDTRMESEKVNGKWLLRQFIVV", "protease stability score": 1.71},
      {"sequence": "DERDEHSRHVAELWLQSMETGDWEHDRRLLDPNMKFEAPNHSLHGRDSYVETMRKIKNLVIHDTKIEHYEVQGDKAHVQMRIDVIVGDKRTWVEVRVEIVVVDGVLHSLRIEIE", "protease stability score": 0.777},
      {"sequence": "SEDKEEAEEFVRIFNEALITGDFEFIEHLADPNVKYRQGEYHEHGRESLSHMFRFLGWSNVKIHLRHIKFYGDKIEVHGEVRIDGRTHWVNSYITKYDGRWYLTSLQIE", "protease stability score": 1.21},
      {"sequence": "SDEDHEAHRMMRLFFEAQRTGDEHLVRKLVDPDVRTFYGEKHMHGRRHHVEILLEIRIHRLTITELRVYGEKVRMDIRVDEQIGDKRREVRFELHLVVIDGVLKVVSIDME", "protease stability score": 0.92},
      {"sequence": "SESERATRHALRLLWDILLTGDEETWEKMADPNVRVEIGNFHDHGMDSMRLLFHLLLERIDHIHDFTVRHSHSQGDKVENHTEIEVRQGDKSLNITTVFVYVKINGRWINKRVIFK", "protease stability score": 0.999},
      {"sequence": "TEDEELAKLVSEILLHIMETGDEDKLSKMADPHVRVNINGRERHGWRNMVRVLHETIRNLGIEIKSVHIRDLKIQGDKIRVTMEIDYQQGDKRNEWSSHLIIIKIDGRWHLHAFELN", "protease stability score": 1.26},
      {"sequence": "REDKKDAEDIIRWLLRAWHTGDPRDVEKMMDPNTLSDINGQKIHGREDVSRFNEFILRHARVEVDVHSMEVYGNYLHVDERFTLRIGDKEIRTETHIIIIKVNGRWLVQTISYG", "protease stability score": 0.782},
      {"sequence": "REEEEEMEELVRRIIHLLKTGDEREFNRLLDPDARVDDGDWHDHGREAWNKWSEKLRRDAGHENIEFHVRHFEVINGRIIMETKVHIGDKTLDTRLIFVVINGRLTSVRLEIH", "protease stability score": 0.037},
      {"sequence": "DEHDERMESVLRHLWHNWKTGDEDRLAELADPNTRTNINGKNFHGWEYMVREFSRFLKHIRIQDLKIRDFRVIDGRAISDVIVHGEVDGKDIDVKTRVELIIINGRFHTLSFTFE", "protease stability score": 1.3},
      {"sequence": "DESRESLEEALKIYIHDIKTGDEKSLTELADPNARLNFNGRWHHGREMVTKWMSEMRLHDFKLHELDVQGDKVHIRGEIFFEIDGRVIRSEIHIVMIKINGRWLLHSMHVE", "protease stability score": 1.17},
      {"sequence": "SEDEEMTKKMVEELNHNLLTGDEERLKKQADPNAKVHQGEYNLVGMDQFVRLIKEWRIHHVDMRDIRIFDGVAFIDFEEDIEIDGVRIQTRTHIIILKVNGRWRFKQWEMR", "protease stability score": 0.862},
      {"sequence": "TDEDEAAELIIRLLEELHHTGDEDKLRDLMDPHVRMDIDGKDFHGRETYLEHLHHRLVNWGVDRIKVEIRLKHSEIQGEKLILETDWIVIFDGVRYEMKVRLILIKVNGRWVLKSSHFK", "protease stability score": 1.32},
      {"sequence": "DEDHHESHRALTELFKDLLTGDWKSSKELADPHARVDINGKEYHGREEMERFFKELWERLGIDHIDVKHIEIQGNKVISHLEIHVNGRTFNLIIIIDKVNGRWIIHSMKMDTE", "protease stability score": 0.968},
      {"sequence": "SEEDKTALEMFERLIHAWLTGDEDEMRRMADPHVKIDKEFENHEVQFHGREDFVRWVIEVRDRIDHLEIRNHSIRTWNGVVHVHTTLFLNYDGKLFILRTEFRLFVIDGRLREERFMLH", "protease stability score": 0.282}
    ]}
  ]
}
